In paper PMC5549993, “Bacterial effector NleL promotes enterohemorrhagic E. coli-induced attaching and effacing lesions by ubiquitylating and inactivating JNK” (PLoS Pathogens, 2017):

Key:
[1] = target: T1, GST-tagged NleL C753A mutant (E. coli O157:H7 Sakai strain, UniProt A0A0H3JDV8 1-782, C753A); experiment: pull-down; settings: both partners purified
T1 construct: also called GST-NleL-CA; NleL-CA
T1 sequence: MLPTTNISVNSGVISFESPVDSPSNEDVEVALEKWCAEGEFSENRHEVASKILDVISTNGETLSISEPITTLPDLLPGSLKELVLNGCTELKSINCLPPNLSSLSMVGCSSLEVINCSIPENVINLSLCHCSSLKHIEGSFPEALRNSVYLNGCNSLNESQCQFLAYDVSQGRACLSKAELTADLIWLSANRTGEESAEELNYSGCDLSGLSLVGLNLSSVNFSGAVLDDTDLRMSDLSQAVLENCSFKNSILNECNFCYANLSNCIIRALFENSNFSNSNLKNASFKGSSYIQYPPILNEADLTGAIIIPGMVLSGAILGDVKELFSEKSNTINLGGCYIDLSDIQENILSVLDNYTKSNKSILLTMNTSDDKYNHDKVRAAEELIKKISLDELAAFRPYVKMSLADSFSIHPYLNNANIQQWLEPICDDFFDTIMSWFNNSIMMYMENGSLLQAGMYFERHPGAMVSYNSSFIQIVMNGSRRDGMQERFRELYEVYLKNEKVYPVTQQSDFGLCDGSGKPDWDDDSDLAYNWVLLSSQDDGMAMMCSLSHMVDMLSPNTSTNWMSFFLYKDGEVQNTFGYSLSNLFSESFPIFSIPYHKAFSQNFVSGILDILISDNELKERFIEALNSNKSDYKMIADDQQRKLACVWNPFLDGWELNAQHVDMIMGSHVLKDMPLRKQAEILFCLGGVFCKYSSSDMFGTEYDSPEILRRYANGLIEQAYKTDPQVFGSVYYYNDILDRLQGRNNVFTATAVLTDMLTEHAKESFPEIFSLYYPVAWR

[2] = target: T2, GST-tagged wild-type NleL (full length) (E. coli O157:H7 Sakai strain, UniProt A0A0H3JDV8 1-782); experiment: pull-down; settings: both partners purified
T2 construct: also called GST-NleL; EspX7; source: E. coli BL21 (DE3), purified (Glutathione Sepharose)
T2 sequence: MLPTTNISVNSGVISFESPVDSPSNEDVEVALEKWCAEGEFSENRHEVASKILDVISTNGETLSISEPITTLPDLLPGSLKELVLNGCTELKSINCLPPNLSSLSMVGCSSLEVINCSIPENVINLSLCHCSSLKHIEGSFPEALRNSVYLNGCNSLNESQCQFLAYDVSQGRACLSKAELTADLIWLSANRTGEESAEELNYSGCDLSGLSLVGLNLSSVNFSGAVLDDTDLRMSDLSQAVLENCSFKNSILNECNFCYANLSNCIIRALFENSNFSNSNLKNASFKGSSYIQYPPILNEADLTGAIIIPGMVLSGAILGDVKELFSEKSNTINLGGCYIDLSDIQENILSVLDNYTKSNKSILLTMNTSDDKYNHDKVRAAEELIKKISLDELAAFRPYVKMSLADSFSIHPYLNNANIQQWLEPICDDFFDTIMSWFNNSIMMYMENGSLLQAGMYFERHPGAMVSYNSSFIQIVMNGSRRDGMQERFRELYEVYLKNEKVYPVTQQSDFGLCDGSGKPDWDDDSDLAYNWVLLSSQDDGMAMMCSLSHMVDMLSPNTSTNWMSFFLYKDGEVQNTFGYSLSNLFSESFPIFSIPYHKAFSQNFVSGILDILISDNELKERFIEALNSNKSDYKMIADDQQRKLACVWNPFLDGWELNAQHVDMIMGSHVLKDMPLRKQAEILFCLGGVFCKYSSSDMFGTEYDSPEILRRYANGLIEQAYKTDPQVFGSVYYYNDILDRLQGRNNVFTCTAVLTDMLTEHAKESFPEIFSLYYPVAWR

B1: His6-tagged JNK1 purified from bacteria (enzyme, human, UniProt P45983-2 1-384, looked up)
chain: MSRSKRDNNFYSVEIGDSTFTVLKRYQNLKPIGSGAQGIVCAAYDAILERNVAIKKLSRPFQNQTHAKRAYRELVLMKCVNHKNIIGLLNVFTPQKSLEEFQDVYIVMELMDANLCQVIQMELDHERMSYLLYQMLCGIKHLHSAGIIHRDLKPSNIVVKSDCTLKILDFGLARTAGTSFMMTPYVVTRYYRAPEVILGMGYKENVDLWSVGCIMGEMVCHKILFPGRDYIDQWNKVIEQLGTPCPEFMKKLQPTVRTYVENRPKYAGYSFEKLFPDVLFPADSEHNKLKASQARDLLSKMLVIDASKRISVDEALQHPYINVWYDPSEAEAPPPKIPDKQLDEREHTIEEWKELIYKEVMDLEERTKNGVIRGQPSPLAQVQQ
notes: human JNK1α1 (MAPK8), in pET28a with 6x His tag; also called His-JNK1; source: E. coli BL21 (DE3), purified (Ni-NTA)
binding result [1]: binds | binding result [2]: binds
